Reference: the supplement of paper PMC10126150
± gives the standard deviation of the averaged measurements.

Test system: ATP
Experiment: switch fluorescence ratio, 500 uM ATP over buffer (Cy3 cluster intensity, sum of 5 cycles each) (fold (ratio)); higher = stronger signal-on switching upon ATP binding; sequences stand for … in TCGTCGGCAGCGTCAGATGTGTATAAGAGACAGTTTTTTTTTTTTTTTTTTTTTTTTT…TC
Conditions: aptamer strand: ATP DNA aptamer (quencher-CACCTGGGGGAGTATTGCGGAGGAAGG + anchor), 100 nM annealed; ATP concentration: 500 uM
Procedure, shortened: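 After annealing to 100 nM quencher-labelled ATP aptamer, Cy3-labelled switching-strand clusters on a modified Illumina MiSeq flow-cell were imaged in selection buffer. A second image followed after 15 min with 500 uM ATP at 22 °C, and five such buffer/ATP cycles were done, each separated by NaOH stripping and re-annealing. The fluorescence ratio, averaged per switch-domain sequence, is summed target-cycle over summed buffer-cycle Cy3 intensity per cluster, with clusters outside 100-1000 RFU excluded.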
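Note: ATP exposure 15 min at 22 °C before imaging.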

TGTCTGGGGG
switch fluorescence ratio: 1.01 ± 0.025

CTTTGTATTC
switch fluorescence ratio: 1.04 ± 0.022

CATTCTACTG
switch fluorescence ratio: 1.04 ± 0.021

CGGCTGGTAC
switch fluorescence ratio: 1.86 ± 0.027

TTAATGTGGC
switch fluorescence ratio: 0.986 ± 0.015

GGTGGTGGAC
switch fluorescence ratio: 0.992 ± 0.037

TTAGGAATGT
switch fluorescence ratio: 1.03 ± 0.047

AGCTTTATGT
switch fluorescence ratio: 1.02 ± 0.04

AGACGCGCCA
switch fluorescence ratio: 1.05 ± 0.087

ACTATGATCA
switch fluorescence ratio: 1.02 ± 0.014

TACAGGATGG
switch fluorescence ratio: 0.9694 ± 0.0057

TGGGTTGATA
switch fluorescence ratio: 0.9958 ± 0.0069

CCTGCTTTTT
switch fluorescence ratio: 1.02 ± 0.021

TTAAAATTCT
switch fluorescence ratio: 1.04 ± 0.06

TATGGGGTCA
switch fluorescence ratio: 0.979 ± 0.018

GCGTGACGGC
switch fluorescence ratio: 0.981 ± 0.033

ACCGCTCAGG
switch fluorescence ratio: 1.022 ± 0.0093

GAATGGAGGT
switch fluorescence ratio: 1.01 ± 0.021

AGGGGCGGTC
switch fluorescence ratio: 1.03 ± 0.014

TAAACTAAAA
switch fluorescence ratio: 0.97499 ± 3.2e-05

ACTGGCAGC
switch fluorescence ratio: 1.05 ± 0.017

AACGTCTTTG
switch fluorescence ratio: 0.9977 ± 0.0033

AATGAGAGTT
switch fluorescence ratio: 0.9909 ± 0.0011

CGGGTAACGG
switch fluorescence ratio: 1.035 ± 0.0014

TAATCAGAGG
switch fluorescence ratio: 0.994 ± 0.019

AAGGCGTGAG
switch fluorescence ratio: 1.02 ± 0.016

CTGTACGGGG
switch fluorescence ratio: 1.02 ± 0.054

ATCAATGGGT
switch fluorescence ratio: 0.979 ± 0.025

GGTATGACTT
switch fluorescence ratio: 1.03 ± 0.07

AAAGGGTGTG
switch fluorescence ratio: 1 ± 0.019

TTTGGACAGG
switch fluorescence ratio: 1.004 ± 0.0071

CCTTCCTACG
switch fluorescence ratio: 2.36 ± 0.54

TCGAGTTGGT
switch fluorescence ratio: 1.01 ± 0.0018

TAAATGGGGG
switch fluorescence ratio: 0.979 ± 0.034

GACCCTGATA
switch fluorescence ratio: 0.987 ± 0.015

GACTCAGACA
switch fluorescence ratio: 1.03 ± 0.047

CCACCGGGGC
switch fluorescence ratio: 2.3 ± 0.12

GATCTACCCA
switch fluorescence ratio: 1.028 ± 0.0089

GTTGTCGCTT
switch fluorescence ratio: 0.9811 ± 0.0057

ATCGTTTGTT
switch fluorescence ratio: 1.04 ± 0.062

CTTTCTAAGG
switch fluorescence ratio: 1.02 ± 0.036

GGCTGAGGGT
switch fluorescence ratio: 1 ± 0.016

TTTGGAGGCT
switch fluorescence ratio: 1.02 ± 0.063

GAGGTACAAA
switch fluorescence ratio: 1.013 ± 0.01

TTTAGTTGGT
switch fluorescence ratio: 1 ± 0.08

TGCATGTAGG
switch fluorescence ratio: 1.01 ± 0.034

TTATACTGAA
switch fluorescence ratio: 1.05 ± 0.021

TCGGGTCTAC
switch fluorescence ratio: 1.01 ± 0.018

ACTGTTAGAT
switch fluorescence ratio: 1.02 ± 0.054

TTAGTTATTG
switch fluorescence ratio: 1 ± 0.087

GATGGTAGCC
switch fluorescence ratio: 0.9862 ± 0.0098

ACGGGCGGGC
switch fluorescence ratio: 1.29 ± 0.032

TACATAATTA
switch fluorescence ratio: 0.993 ± 0.021

AGTTTTCCTG
switch fluorescence ratio: 0.985 ± 0.015

TCTAGAAGCG
switch fluorescence ratio: 1.0039 ± 0.00082

TTGGGGCGGA
switch fluorescence ratio: 0.9923 ± 0.0095

GGTTAGTATG
switch fluorescence ratio: 1.01 ± 0.027

TTTGTAACCT
switch fluorescence ratio: 1.74 ± 0.035

TGTGAAGTTT
switch fluorescence ratio: 0.9595 ± 0.0076

TGGGCGTAAG
switch fluorescence ratio: 1.02 ± 0.027

ACAAACTGGT
switch fluorescence ratio: 1 ± 0.019

AACTGACGGA
switch fluorescence ratio: 1.14 ± 0.026

TTATTGGTGT
switch fluorescence ratio: 1.01 ± 0.024

GTAGTTATGG
switch fluorescence ratio: 1.04 ± 0.03

TATAAGACAA
switch fluorescence ratio: 1.02 ± 0.022

GAATGTTCAG
switch fluorescence ratio: 1.02 ± 0.024

AATGAGTCAA
switch fluorescence ratio: 1 ± 0.021

TGACCGAGAA
switch fluorescence ratio: 1.06 ± 0.028

GTTTTTGTCG
switch fluorescence ratio: 1.07 ± 0.056

ACGTGCTTTT
switch fluorescence ratio: 0.999 ± 0.018

TTTGAGGTGG
switch fluorescence ratio: 1.03 ± 0.043

GACTATTAGG
switch fluorescence ratio: 0.989 ± 0.029

ATTTGGTCGT
switch fluorescence ratio: 0.979 ± 0.048

AAAAAAGTGG
switch fluorescence ratio: 1.02 ± 0.026

GGGTTGTTGT
switch fluorescence ratio: 0.982 ± 0.014

TCGGTTGCTA
switch fluorescence ratio: 1.05 ± 0.023

GGTCGGGGTC
switch fluorescence ratio: 0.966 ± 0.039

AGTTATGTTT
switch fluorescence ratio: 0.956 ± 0.051

CAGGGGAGCA
switch fluorescence ratio: 1.02 ± 0.039

TTCGGTGAAG
switch fluorescence ratio: 1.01 ± 0.0051

TCCGGCGGAC
switch fluorescence ratio: 1.149 ± 0.0078

TTTGAGGTAG
switch fluorescence ratio: 0.98 ± 0.019

GTGTAGAGGG
switch fluorescence ratio: 1 ± 0.048

GGAATGCGCA
switch fluorescence ratio: 1.028 ± 0.0068

CCGATGTGTC
switch fluorescence ratio: 2.42 ± 0.52

TGGTACAGGG
switch fluorescence ratio: 1.03 ± 0.018

TTGTCCCTTT
switch fluorescence ratio: 0.9848 ± 0.0074

GTGGGATGTT
switch fluorescence ratio: 1.01 ± 0.015

GGAATCGGTC
switch fluorescence ratio: 1 ± 0.051

GAGAAGATTT
switch fluorescence ratio: 1.036 ± 0.0016

AATTGATAAA
switch fluorescence ratio: 0.984 ± 0.042

TTTATTTTGT
switch fluorescence ratio: 1 ± 0.038

TTTTGTCCAT
switch fluorescence ratio: 0.992 ± 0.015

CTTGTCAGGG
switch fluorescence ratio: 0.975 ± 0.021

ACCTAGCTTC
switch fluorescence ratio: 1.12 ± 0.05

TCGGCCACAG
switch fluorescence ratio: 1.05 ± 0.02

CTCACATGGG
switch fluorescence ratio: 1.07 ± 0.028

CGATGTATTT
switch fluorescence ratio: 1.01 ± 0.048

GAAGGGTTAC
switch fluorescence ratio: 1.15 ± 0.15

TTCAAGGTA
switch fluorescence ratio: 1.01 ± 0.015

AAACACTGGG
switch fluorescence ratio: 0.9638 ± 0.0073

AACCGTTTTG
switch fluorescence ratio: 0.979 ± 0.011

ATTCCAGAGG
switch fluorescence ratio: 1.01 ± 0.02

CTTGCATAAC
switch fluorescence ratio: 3.51 ± 0.88

AAGGTTGAAC
switch fluorescence ratio: 0.979 ± 0.011

GAGGGGCATG
switch fluorescence ratio: 1.01 ± 0.032

AGTTCTGTCG
switch fluorescence ratio: 1.01 ± 0.09

CATATGTTAG
switch fluorescence ratio: 1 ± 0.038

ATCGCCTTGT
switch fluorescence ratio: 0.9943 ± 0.0024

CTAATTCTG
switch fluorescence ratio: 0.98 ± 0.018

GGAGCATTTT
switch fluorescence ratio: 1.78 ± 0.88

GTCTGGGGTG
switch fluorescence ratio: 1.04 ± 0.021

CGGAGTTGGA
switch fluorescence ratio: 1.04 ± 0.041

GGTCCCATCG
switch fluorescence ratio: 0.985 ± 0.019

GAGGGAGATT
switch fluorescence ratio: 1.02 ± 0.05

ATGGTTTTG
switch fluorescence ratio: 0.975 ± 0.047

GAGTCGGCGG
switch fluorescence ratio: 0.9893 ± 0.0023

TGACTATGCT
switch fluorescence ratio: 0.98 ± 0.02

TCGGGTAAAG
switch fluorescence ratio: 0.9947 ± 0.0053

CGGGGAGACG
switch fluorescence ratio: 0.929 ± 0.13

TAAGGCGGTT
switch fluorescence ratio: 0.984 ± 0.021

GTGAAAACCG
switch fluorescence ratio: 1.03 ± 0.062

TTAAGATATT
switch fluorescence ratio: 0.9797 ± 0.0066

ACTAAAAATT
switch fluorescence ratio: 1.05 ± 0.04

GAAGTATGTG
switch fluorescence ratio: 1.006 ± 0.0092

GTAGTTTTGT
switch fluorescence ratio: 0.987 ± 0.032

ATGTTGAGCC
switch fluorescence ratio: 0.9874 ± 0.0022

CGGTATGTG
switch fluorescence ratio: 1.01 ± 0.036

CCTCATTCGG
switch fluorescence ratio: 1.06 ± 0.021

AATGGCATTC
switch fluorescence ratio: 1.03 ± 0.038

GTATCTTGGG
switch fluorescence ratio: 1.04 ± 0.042

AAGGTTGGTG
switch fluorescence ratio: 1 ± 0.034

GCTTTATAGG
switch fluorescence ratio: 1 ± 0.016

TGATGGCCGA
switch fluorescence ratio: 0.985 ± 0.019

TCGCCCGCGA
switch fluorescence ratio: 1.51 ± 0.063

AGGGTTATTA
switch fluorescence ratio: 0.9786 ± 0.0025

TCGGGTATGT
switch fluorescence ratio: 0.977 ± 0.029

GTTTGGGAAA
switch fluorescence ratio: 0.988 ± 0.036

AAGTGCCTGC
switch fluorescence ratio: 1.015 ± 0.0056

GGCCGCGGCC
switch fluorescence ratio: 1.0014 ± 0.00091

TCCTGGAGCG
switch fluorescence ratio: 1.08 ± 0.068

TTGACGATTT
switch fluorescence ratio: 1.05 ± 0.063

TAGCTGAGGT
switch fluorescence ratio: 1.03 ± 0.017

AGTTGTTTGT
switch fluorescence ratio: 0.966 ± 0.016

ATTTGGAAAG
switch fluorescence ratio: 0.999 ± 0.021

GCGGGTTGCC
switch fluorescence ratio: 0.9871 ± 0.0013

CCTAATCAAC
switch fluorescence ratio: 1.13 ± 0.034

GAAAATAGTG
switch fluorescence ratio: 1.01 ± 0.029

GGGTGTTTTT
switch fluorescence ratio: 0.98 ± 0.0073

GCAGCCGGGT
switch fluorescence ratio: 0.991 ± 0.022

GAAGAAAGGT
switch fluorescence ratio: 0.966 ± 0.064

TTTTATTTCA
switch fluorescence ratio: 0.991 ± 0.021

AATGTACCCA
switch fluorescence ratio: 1.09 ± 0.017

TATGTATTCT
switch fluorescence ratio: 1 ± 0.017

ACGGAATGTT
switch fluorescence ratio: 1.0819 ± 0.00046

GGTTGAGCTG
switch fluorescence ratio: 0.945 ± 0.056

AAATTTTTCT
switch fluorescence ratio: 1.05 ± 0.07

CCTGGCCTGC
switch fluorescence ratio: 1.078 ± 0.01

TTTGAAGCCG
switch fluorescence ratio: 0.989 ± 0.024

TTCCGGGTAC
switch fluorescence ratio: 3.27 ± 0.22

AGTTTTTCCA
switch fluorescence ratio: 1.02 ± 0.031

TTGAAATCGC
switch fluorescence ratio: 1.01 ± 0.041

GAAATTCGAG
switch fluorescence ratio: 1.01 ± 0.033

TGTCGGGGGT
switch fluorescence ratio: 1.22 ± 0.18

GGTCGATTCG
switch fluorescence ratio: 0.961 ± 0.013

TAAACCTAGC
switch fluorescence ratio: 1.46 ± 0.062

CGGTGGGTGC
switch fluorescence ratio: 0.997 ± 0.038

CCGGACACGA
switch fluorescence ratio: 1.39 ± 0.042

ATTAGGGGGC
switch fluorescence ratio: 1.04 ± 0.061

GAGTTATGTA
switch fluorescence ratio: 0.997 ± 0.016

GCGTTCATGG
switch fluorescence ratio: 1.04 ± 0.0093

TTTTGAGGCA
switch fluorescence ratio: 1.02 ± 0.027

GGGGAACACT
switch fluorescence ratio: 1.01 ± 0.022

CAGGGTACGG
switch fluorescence ratio: 1.01 ± 0.052

GTCAGGATTT
switch fluorescence ratio: 0.9925 ± 0.0087

TGGGAAAGCA
switch fluorescence ratio: 1 ± 0.012

GAGACACATA
switch fluorescence ratio: 1.09 ± 0.013

CTCCAGTCAG
switch fluorescence ratio: 1.51 ± 0.055

CAGTGAATGA
switch fluorescence ratio: 1.03 ± 0.017

ATAGTAAAGG
switch fluorescence ratio: 0.994 ± 0.031

TCGGTAGGTG
switch fluorescence ratio: 1.028 ± 0.0052

TGGGGTTGGA
switch fluorescence ratio: 1.01 ± 0.025

TTGCTACTCG
switch fluorescence ratio: 1.62 ± 0.73

GGGTACAGAT
switch fluorescence ratio: 0.986 ± 0.0099

ACCCGTACTT
switch fluorescence ratio: 1.15 ± 0.033

AGGTAGGGTG
switch fluorescence ratio: 1.04 ± 0.055

TAAACGCGTA
switch fluorescence ratio: 0.998 ± 0.029

CGAGTGGCGG
switch fluorescence ratio: 0.968 ± 0.023

GATGGTAAAC
switch fluorescence ratio: 1.05 ± 0.056

GACGACAGTC
switch fluorescence ratio: 1.029 ± 0.0052

TTTTTTCGTT
switch fluorescence ratio: 0.988 ± 0.022

GATTCATTAG
switch fluorescence ratio: 0.9925 ± 0.0015

GGGGCCAATT
switch fluorescence ratio: 1.01 ± 0.032

TTTTAACCCT
switch fluorescence ratio: 0.998 ± 0.013

AGTAAAGTGG
switch fluorescence ratio: 0.971 ± 0.025

AGGATTTTTG
switch fluorescence ratio: 1.02 ± 0.021

TTAGTATATT
switch fluorescence ratio: 1.03 ± 0.0093

ATAATTTAAT
switch fluorescence ratio: 0.9986 ± 0.0074

GATGTTTCAT
switch fluorescence ratio: 0.979 ± 0.018

TGTTTTAAAA
switch fluorescence ratio: 0.99 ± 0.027
